# Data taken from patent US20240279288A1, “APPLICATION OF PLANT JAZ PROTEINS AND DERIVED POLYPEPTIDES IN PREVENTION AND TREATMENT OF HUMAN AND ANIMAL TUMORS” (ANYANG INSTITUTE OF SINO-COTTON INDUSTRY INNOVATION, priority 2021, published 2024).
# Columns and labels:
# [1] = test system: ovarian cancer cells SKOV3; assay: CCK8 cell viability detection, SKOV3; assay type: cell-based, human; settings: CCK8, 24 h treatment; read-out: IC50, inhibition of SKOV3 cells
# Protocol: CCK8 cell viability detection: cell suspension was seeded in 96-well plates at a concentration of 5×10^4 cells/ml (100 μL/well). The plates were placed in the incubator for pre-culture (at 37° C., 5% CO2), and control and protein agents were added to each well 24 h after seeding. The plates were then placed in the incubator for 24 h, followed by addition of 10 μL CCK8 solution into each well and incubation of the plates in the incubator for 0.5-2 h before the absorbance measurement at 450 nm using a microplate reader.
# Analysis of effect of GhJAZ1 protein on the cell cycle and apoptosis of tumor cells
# D3 domain deficient uPAR = target: T1, D3 domain deficient uPAR (Homo sapiens, UniProt Q03405, DEL192-274); assay: Yeast two hybrid with D3 domain deficient uPAR; assay type: binding
# T1 construct: expressed in transfected cells; host or cells: yeast Y2HGold
# Text: […]
# GhHDA6 = assay: CO-IP experiment with GhHDA6; assay type: binding, cotton
# Protocol: Steps of method of CO-IP experiment: Non-denaturing lysate was added to 293T cell culture plate (Pricella, Cat. No.: CL-0005), and the cells were completely lysed at 4° C. The lysate was centrifuged at 12,000 rpm for 10 min and the supernatant was collected. The corresponding antibody was added to the obtained non-denatured protein solution, which was incubated overnight at 4° C. Pierce™ protein A/G magnetic agarose (Thermo Fisher Scientific, Inc.) were washed with lysis buffer, followed by addition pre-treated beads to the cell lysate, and incubation at room temperature for 2 hours. The mixture was centrifuged at 4° C., 2,500 rpm for 5 min with supernatant removed, and the agarose beads were washed 5 times with 1 ml of lysis buffer. An appropriate amount of protein loading buffer was added to the pellet, and the sample was incubated in water bath at 100° C. for 10 min. The band of interest was detected by Western blotting.
# c-Myc-215aa = target: T2, c-Myc-215aa (Homo sapiens, UniProt P01106); assay: Yeast two hybrid and LUC with c-Myc truncated to first 215 amino acids; assay type: binding
# T2 construct: expressed in transfected cells
# Text: […]
# T2 sequence (P01106 1-215): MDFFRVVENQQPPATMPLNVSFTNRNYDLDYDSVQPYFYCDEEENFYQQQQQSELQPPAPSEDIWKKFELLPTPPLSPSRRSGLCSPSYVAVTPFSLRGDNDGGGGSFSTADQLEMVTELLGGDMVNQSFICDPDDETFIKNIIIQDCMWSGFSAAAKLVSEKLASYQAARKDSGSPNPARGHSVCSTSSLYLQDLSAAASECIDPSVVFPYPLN
# T1 sequence (Q03405 with tags, fused parts or gaps DEL192-274): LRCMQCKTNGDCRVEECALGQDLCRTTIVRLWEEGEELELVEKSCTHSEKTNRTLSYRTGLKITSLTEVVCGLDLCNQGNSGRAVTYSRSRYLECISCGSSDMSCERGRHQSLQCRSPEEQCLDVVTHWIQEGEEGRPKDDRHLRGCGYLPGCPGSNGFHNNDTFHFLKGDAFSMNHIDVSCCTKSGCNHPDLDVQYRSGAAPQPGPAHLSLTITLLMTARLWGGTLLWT
# Chain of GhHDA6 (as listed by the source): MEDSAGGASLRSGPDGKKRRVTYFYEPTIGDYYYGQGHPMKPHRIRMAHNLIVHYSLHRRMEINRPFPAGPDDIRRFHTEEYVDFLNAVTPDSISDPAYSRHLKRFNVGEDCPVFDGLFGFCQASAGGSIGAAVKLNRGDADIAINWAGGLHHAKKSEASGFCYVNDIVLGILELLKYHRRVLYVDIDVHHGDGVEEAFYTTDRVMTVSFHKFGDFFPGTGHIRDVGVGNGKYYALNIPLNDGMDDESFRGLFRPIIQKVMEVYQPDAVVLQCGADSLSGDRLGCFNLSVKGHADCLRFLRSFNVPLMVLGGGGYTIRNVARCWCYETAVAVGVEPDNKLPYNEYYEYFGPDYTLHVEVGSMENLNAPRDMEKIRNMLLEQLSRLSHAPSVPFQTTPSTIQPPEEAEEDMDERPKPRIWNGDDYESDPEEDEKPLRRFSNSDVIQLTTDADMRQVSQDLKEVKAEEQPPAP
molecule,measurement,setting,value
"GhJAZ1: cotton JAZ1 protein, gene number Gh_A05G0260, sequence SEQ ID No. 4; prokaryotically expressed with His tag, about 30 KD (protein, His tag, prokaryotically expressed with His tag, about 30 KD) MSSCSESTAMKPARSPEKPSFAQTCNLLSQYLKEKGSFGDLSLGMTCNVEANGTPVVPPPTMNLFPLNDKSDDVCGRNGGNPKNLTSMDLFPQQAGLASKDDSPNKLEPQTAPMTIFYGGQVIVFNDFPANKAKEIMLLASNSSSQSNNSFNPIPFTSSIARSPIESSIGVPPTSKPVHPAQRAVPGDLPIARRASLHRFLEKRKDRITAKAPYQINNSAAAPSLSGDNKSWLGLAAQSP",IC50,[1],784 nM
same,interaction with D3 domain deficient uPAR,D3 domain deficient uPAR,significantly weakened to none
same,interaction with GhHDA6,GhHDA6,interacts
same,interaction with first 215 amino acids truncated c-Myc,c-Myc-215aa,strong interactions
